Measured values published in US20250388666A1 (BRIGHAM AND WOMEN S HOSPITAL, published 2025).
Where two headings read alike, the source gives them in different places.

T1: CEACAM3 (Sino Biological) (human, UniProt P40198 35-155, limits assumed)
T1 construct: also called hCEACAM3
T1 sequence (looked up): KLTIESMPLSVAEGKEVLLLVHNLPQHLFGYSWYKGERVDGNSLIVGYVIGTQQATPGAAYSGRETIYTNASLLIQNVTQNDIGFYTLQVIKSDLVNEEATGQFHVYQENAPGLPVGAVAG

T2: CEACAM5 (Sino Biological) (human, UniProt P06731 35-685)
T2 construct: also called hCEACAM5
T2 sequence (looked up): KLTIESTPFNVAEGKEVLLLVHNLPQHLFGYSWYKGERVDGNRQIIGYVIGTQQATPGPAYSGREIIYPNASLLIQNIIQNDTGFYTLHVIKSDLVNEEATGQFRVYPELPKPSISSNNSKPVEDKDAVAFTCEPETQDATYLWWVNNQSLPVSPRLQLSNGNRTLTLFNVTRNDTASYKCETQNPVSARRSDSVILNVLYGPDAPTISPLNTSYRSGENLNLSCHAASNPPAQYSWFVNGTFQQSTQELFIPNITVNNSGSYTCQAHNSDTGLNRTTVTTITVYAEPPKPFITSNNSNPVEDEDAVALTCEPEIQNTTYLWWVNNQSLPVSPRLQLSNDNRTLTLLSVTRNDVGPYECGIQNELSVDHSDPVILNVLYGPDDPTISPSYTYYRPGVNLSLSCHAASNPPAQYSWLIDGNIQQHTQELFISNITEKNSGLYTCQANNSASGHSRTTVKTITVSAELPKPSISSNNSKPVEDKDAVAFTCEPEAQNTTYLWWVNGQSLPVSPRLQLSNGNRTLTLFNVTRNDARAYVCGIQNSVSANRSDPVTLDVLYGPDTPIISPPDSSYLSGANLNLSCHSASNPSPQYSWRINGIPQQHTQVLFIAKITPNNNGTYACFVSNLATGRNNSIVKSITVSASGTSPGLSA

T3: CEACAM6 (Sino Biological) (human, UniProt P40199 35-320)
T3 construct: also called hCEACAM6
T3 sequence (looked up): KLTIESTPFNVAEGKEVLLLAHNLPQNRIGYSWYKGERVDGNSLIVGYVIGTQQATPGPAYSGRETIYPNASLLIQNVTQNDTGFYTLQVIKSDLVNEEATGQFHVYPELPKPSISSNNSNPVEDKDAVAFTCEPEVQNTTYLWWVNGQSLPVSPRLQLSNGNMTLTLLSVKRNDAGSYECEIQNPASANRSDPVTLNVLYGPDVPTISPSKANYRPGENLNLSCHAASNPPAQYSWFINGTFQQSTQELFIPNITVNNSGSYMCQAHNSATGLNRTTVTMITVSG

T4: CEACAM1 (Sino Biological) (human, UniProt P13688 35-428, limits assumed)
T4 construct: may be the same as CEACAM1-HIS; also called hCEACAM1; biotinylated soluble CEACAM1
T4 sequence: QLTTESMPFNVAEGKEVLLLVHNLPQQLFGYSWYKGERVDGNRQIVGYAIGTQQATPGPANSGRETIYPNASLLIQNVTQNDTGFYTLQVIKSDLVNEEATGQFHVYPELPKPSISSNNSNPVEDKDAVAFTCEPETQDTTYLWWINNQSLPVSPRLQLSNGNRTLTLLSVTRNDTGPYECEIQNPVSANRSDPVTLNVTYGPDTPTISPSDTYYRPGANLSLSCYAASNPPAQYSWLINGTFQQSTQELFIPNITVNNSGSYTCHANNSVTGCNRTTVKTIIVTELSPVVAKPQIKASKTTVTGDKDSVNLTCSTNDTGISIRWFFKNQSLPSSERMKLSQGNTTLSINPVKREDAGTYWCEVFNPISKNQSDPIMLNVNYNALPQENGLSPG

B1: He3/L20 (antibody, IgG4, V domains shown)
VH: EVQLLESGGGLVQPGGSLRLSCAASGFSFSDYYLYWVRQAPGKGLEWVATISVGGGQTSYADSVKGRFTISRDNSKNTLYLQMNSLRAEDTAMYYCTRALTYGPAWLAYWGQGTLVTVSS
VL: DIVMTQSPDSLAVSLGERATINCKSSQSLLNSANQKNYLAWYQQKPGQPPKLLIYFASTRESGVPDRFSGSGSGTDFTLTISSLQAEDVAVYYCQSHFPYPLTFGGGTKVEIK
notes: IgG4 S241P, kappa; also called He3 / 20
B2: Parent VH/L1 (antibody, IgG4, V domains shown)
VH: EVQLLESGGGLVQPGGSLRLSCAASGFSFSDYYLYWVRQAPGKGLEWVATISVGGGQTSYADSVKGRFTISRDNSKNTLYLQMNSLRAEDTAMYYCTRGLYYGPAWFAYWGQGTLVTVSS
VL: DIVMTQSPDSLAVSLGERATINCKSSQSLLNSANQKNYLAWYQQKPGQPPKLLIYFASTRESGVPDRFSGSGSGTDFTLTISSLQAEDVAVYYCQSHYPFYYTFGGGTKVEIK
notes: IgG4 S241P, kappa; also called VHp/L1; VH2 N56Q / 1
B3: He9/L6 (antibody, IgG4, V domains shown)
VH: EVQLLESGGGLVQPGGSLRLSCAASGFSFSDYYLYWVRQAPGKGLEWVATISVGGGQTSYADSVKGRFTISRDNSKNTLYLQMNSLRAEDTAMYYCARAMYYGPAWFAYWGQGTLVTVSS
VL: DIVMTQSPDSLAVSLGERATINCKSSQSLLNSANQKNYLAWYQQKPGQPPKLLIYFASTRESGVPDRFSGSGSGTDFTLTISSLQAEDVAVYYCQSHYPFSFTFGGGTKVEIK
notes: IgG4 S241P, kappa; also called He9 / 6
B4: parent VH2 N56Q/Vκ4 S27(f)A scFv displayed on phage (scFv)
scFv: EVQLLESGGGLVQPGGSLRLSCAASGFSFSDYYLYWVRQAPGKGLEWVATISVGGGQTSYADSVKGRFTISRDNSKNTLYLQMNSLRAEDTAMYYCTRGLYYGPAWFAYWGQGTLVTVSSGGGGSGGGGSGGGGSDIVMTQSPDSLAVSLGERATINCKSSQSLLNSANQKNYLAWYQQKPGQPPKLLIYFASTRESGVPDRFSGSGSGTDFTLTISSLQAEDVAVYYCQQHYSTPWTFGGGTKVEIK
notes: also called parent scFv hyper phage; parent M13 helper phage; not shown: C-terminal Flag tag and gene III fusion

Legend:
[1] = target: T1, CEACAM3 (Sino Biological); assay: binding ELISA on plate-coated CEACAM (0.5 µg/mL); antibody at 1.67, 0.062 and 0.0069 µg/mL; signal as % of parent IgG on CEACAM1 at 1.67 µg/mL on the same plate
[2] = target: T2, CEACAM5 (Sino Biological); assay: as above
[3] = target: T3, CEACAM6 (Sino Biological); assay: as above
[4] = target: T4, CEACAM1 (Sino Biological); assay: SPR multi-cycle, IgG on Protein A
[5] = target: T4, CEACAM1 (Sino Biological); assay: SPR single-cycle
Summary of the method: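 Humanized affinity-matured IgGs from crude supernatants captured on Protein A to ~100 RU, with CEACAM1 analyte injected at 25–100 nM (three-point, two-fold) in HBS-P+ without regeneration. 200 s association per injection, 300 s single dissociation; reference-channel and blank subtracted.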

[6] = target: T1, CEACAM3 (Sino Biological); assay: binding ELISA on plate-coated CEACAM (0.5 µg/mL); antibody at 1.67, 0.062 and 0.0069 µg/mL; signal as % of parent IgG on CEACAM1 at 1.67 µg/mL on the same plate; remark: listed apart in the source
[7] = target: T2, CEACAM5 (Sino Biological); assay: as above; remark: listed apart in the source
[8] = target: T3, CEACAM6 (Sino Biological); assay: as above; remark: listed apart in the source
[9] = target: T1, CEACAM3 (Sino Biological); assay: as above; remark: listed apart in the source
[10] = target: T4, CEACAM1 (Sino Biological); assay: phage binding assay

Binder	binding result [1]	binding result [2]	binding result [3]	Kd [4] [nM]	koff [4] [s⁻¹]	kon [4] [M⁻¹ s⁻¹]	relative KD to Parent [4] [ratio]	Kd [5] [nM]	fold better than Parent (KD) [5] [fold]	binding result [6]	binding result [7]	binding result [8]	binding result [9]	binding result [10]
B1	no binding (tested: 1.67 µg/mL)	no binding (tested: 1.67 µg/mL)	no binding (tested: 1.67 µg/mL)	25.5	0.0078	306000	3.34	74	2.15					
B2				125	0.00413	33100	0.68	41	3.87	no binding (tested: 1.67 µg/mL)	no binding (tested: 1.67 µg/mL)	no binding (tested: 1.67 µg/mL)		
B3				39.6	0.00151	38100	4.82	22	7.1				no binding (tested: 1.67 µg/mL)	
B4														binds
